How the values were obtained:
Test in all cases: cell-based or functional assay
[1] = molecular target: HIV-1 Env of pseudovirus 211-9 (HIV-1)
[2] = molecular target: HIV-1 Env of pseudovirus 231965.c01 (HIV-1)
[3] = molecular target: HIV-1 Env of pseudovirus 246F C1G (HIV-1)
[4] = molecular target: HIV-1 Env of pseudovirus 263-8 (HIV-1)
[5] = molecular target: HIV-1 Env of pseudovirus 3103.v3.c10 (HIV-1)
[6] = molecular target: HIV-1 Env of pseudovirus 3301.v1.c24 (HIV-1)
[7] = molecular target: HIV-1 Env of pseudovirus 3365.v2.c2 (HIV-1)
[8] = molecular target: HIV-1 Env of pseudovirus 620345.c01 (HIV-1)
[9] = molecular target: HIV-1 Env of pseudovirus 6480.v4.c25 (HIV-1)
[10] = molecular target: HIV-1 Env of pseudovirus 6545.v4.c1 (HIV-1)
[11] = molecular target: HIV-1 Env of pseudovirus 6952.v1.c20 (HIV-1)
[12] = molecular target: HIV-1 Env of pseudovirus 89-F1_2_25 (HIV-1)
[13] = molecular target: HIV-1 Env of pseudovirus 9004SS_A3_4 (HIV-1)
[14] = molecular target: HIV-1 Env of pseudovirus AC10.0.29 (HIV-1)
[15] = molecular target: HIV-1 Env of pseudovirus BJOX010000.06.2 (HIV-1)
[16] = molecular target: HIV-1 Env of pseudovirus BJOX025000.01.1 (HIV-1)
[17] = molecular target: HIV-1 Env of pseudovirus C1080.c03 (HIV-1)
[18] = molecular target: HIV-1 Env of pseudovirus C3347.c11 (HIV-1)
[19] = molecular target: HIV-1 Env of pseudovirus CNE19 (HIV-1)
[20] = molecular target: HIV-1 Env of pseudovirus CNE21 (HIV-1)
[21] = molecular target: HIV-1 Env of pseudovirus CNE52 (HIV-1)
[22] = molecular target: HIV-1 Env of pseudovirus Ce1086_B2 (HIV-1)
[23] = molecular target: HIV-1 Env of pseudovirus HIV-0013095-2.11 (HIV-1)
[24] = molecular target: HIV-1 Env of pseudovirus HIV-16055-2.3 (HIV-1)
[25] = molecular target: HIV-1 Env of pseudovirus P0402_c2_11 (HIV-1)
[26] = molecular target: HIV-1 Env of pseudovirus PVO.4 (HIV-1)
[27] = molecular target: HIV-1 Env of pseudovirus Q769.d22 (HIV-1)
[28] = molecular target: HIV-1 Env of pseudovirus SC05_8C11_2344 (HIV-1)
[29] = molecular target: HIV-1 Env of pseudovirus SC422661.8 (HIV-1)
[30] = molecular target: HIV-1 Env of pseudovirus T255-34 (HIV-1)
[31] = molecular target: HIV-1 Env of pseudovirus T257-31 (HIV-1)
[32] = molecular target: HIV-1 Env of pseudovirus THRO4156.18 (HIV-1)
[33] = molecular target: HIV-1 Env of pseudovirus TRJO4551.58 (HIV-1)
[34] = molecular target: HIV-1 Env of pseudovirus X1632_S2_B10 (HIV-1)
[35] = molecular target: HIV-1 Env of pseudovirus ZM135M.PL10a (HIV-1)
[36] = molecular target: HIV-1 Env of pseudovirus ZM197M.PB7 (HIV-1)
[37] = molecular target: HIV-1 Env of pseudovirus ZM247v1(Rev-) (HIV-1)

## 3BNC117 (antibody)
[1]
  IC50, titer in TZM.bl cells: 0.35 µg/mL
  IC80, titer in TZM.bl cells: 1.28 µg/mL
[2]
  IC50, titer in TZM.bl cells: 0.05 µg/mL
  IC80, titer in TZM.bl cells: 0.22 µg/mL
[3]
  neutralization IC50: 19.3 µg/mL
  neutralization IC80: > 50 µg/mL
[4]
  neutralization IC50: 0.005 µg/mL
  neutralization IC80: 0.04 µg/mL
[5]
  IC50, titer in TZM.bl cells: 0.22 µg/mL
  IC80, titer in TZM.bl cells: 0.85 µg/mL
[6]
  IC50, titer in TZM.bl cells: 0.01 µg/mL
  IC80, titer in TZM.bl cells: 0.05 µg/mL
[7]
  neutralization IC50: 0.03 µg/mL
  neutralization IC80: 0.1 µg/mL
[8]
  IC50, titer in TZM.bl cells: > 15 µg/mL
  IC80, titer in TZM.bl cells: > 15 µg/mL
[9]
  IC50, titer in TZM.bl cells: 0.01 µg/mL
  IC80, titer in TZM.bl cells: 0.04 µg/mL
[10]
  IC50, titer in TZM.bl cells: > 50 µg/mL
  IC80, titer in TZM.bl cells: > 50 µg/mL
[11]
  IC50, titer in TZM.bl cells: 0.15 µg/mL
  IC80, titer in TZM.bl cells: 0.75 µg/mL
[12]
  IC50, titer in TZM.bl cells: > 50 µg/mL
  IC80, titer in TZM.bl cells: > 50 µg/mL
[13]
  neutralization IC50: 0.07 µg/mL
  neutralization IC80: 0.18 µg/mL
[14]
  neutralization IC50: 13.8 µg/mL
  neutralization IC80: > 50 µg/mL
[15]
  IC50, titer in TZM.bl cells: 1.58 µg/mL
  IC80, titer in TZM.bl cells: 10.4 µg/mL
[16]
  IC50, titer in TZM.bl cells: 0.05 µg/mL
  IC80, titer in TZM.bl cells: 0.2 µg/mL
[17]
  IC50, titer in TZM.bl cells: 0.25 µg/mL
  IC80, titer in TZM.bl cells: 1.73 µg/mL
[18]
  IC50, titer in TZM.bl cells: 0.03 µg/mL
  IC80, titer in TZM.bl cells: 0.13 µg/mL
[19]
  neutralization IC50: 0.02 µg/mL
  neutralization IC80: 0.08 µg/mL
[20]
  neutralization IC50: 45.4 µg/mL
  neutralization IC80: > 50 µg/mL
[21]
  neutralization IC50: 0.02 µg/mL
  neutralization IC80: 0.06 µg/mL
[22]
  neutralization IC50: 0.09 µg/mL
  neutralization IC80: 0.31 µg/mL
[23]
  neutralization IC50: 0.33 µg/mL
  neutralization IC80: 2.53 µg/mL
[24]
  neutralization IC50: 5.6 µg/mL
  neutralization IC80: > 50 µg/mL
[25]
  IC50, titer in TZM.bl cells: 0.06 µg/mL
  IC80, titer in TZM.bl cells: 0.38 µg/mL
[26]
  neutralization IC50: < 0.09 µg/mL
  neutralization IC80: 0.19 µg/mL
[27]
  neutralization IC50: 0.01 µg/mL
  neutralization IC80: 0.04 µg/mL
[28]
  neutralization IC50: 0.15 µg/mL
  neutralization IC80: 0.51 µg/mL
[29]
  neutralization IC50: 0.02 µg/mL
  neutralization IC80: 0.08 µg/mL
[30]
  IC50, titer in TZM.bl cells: 0.02 µg/mL
  IC80, titer in TZM.bl cells: 0.14 µg/mL
[31]
  neutralization IC50: 0.06 µg/mL
  neutralization IC80: 0.37 µg/mL
[32]
  neutralization IC50: 1.76 µg/mL
  neutralization IC80: 10.1 µg/mL
[33]
  neutralization IC50: 0.05 µg/mL
  neutralization IC80: 0.19 µg/mL
[34]
  IC50, titer in TZM.bl cells: 15.7 µg/mL
  IC80, titer in TZM.bl cells: > 50 µg/mL
[35]
  neutralization IC50: 0.03 µg/mL
  neutralization IC80: 0.13 µg/mL
[36]
  neutralization IC50: 0.22 µg/mL
  neutralization IC80: 1.03 µg/mL
[37]
  neutralization IC50: > 50 µg/mL
  neutralization IC80: > 50 µg/mL

## N49P18.1 (antibody)
[1]
  IC50: 18.3 µg/mL
  IC80: > 50 µg/mL
  MPI: 73
[2]
  IC50: > 50 µg/mL
  IC80: > 50 µg/mL
  MPI: 31
[4]
  IC50: 3.96 µg/mL
  IC80: 41 µg/mL
  MPI: 90
[5]
  IC50: 8.56 µg/mL
  IC80: 32.4 µg/mL
  MPI: 93
[6]
  IC50: 3.25 µg/mL
  IC80: 11.3 µg/mL
  MPI: 99
[7]
  IC50: 4.72 µg/mL
  IC80: 14.3 µg/mL
  MPI: 99
[8]
  IC50: > 50 µg/mL
  IC80: > 50 µg/mL
  MPI: 0
[9]
  IC50: 2.97 µg/mL
  IC80: 17.3 µg/mL
  MPI: 99
[10]
  IC50: > 50 µg/mL
  IC80: > 50 µg/mL
  MPI: 0
[11]
  IC50: > 50 µg/mL
  IC80: > 50 µg/mL
  MPI: 30
[12]
  IC50: > 50 µg/mL
  IC80: > 50 µg/mL
  MPI: 9
[13]
  IC50: 3.02 µg/mL
  IC80: 13.9 µg/mL
  MPI: 99
[15]
  IC50: > 50 µg/mL
  IC80: > 50 µg/mL
  MPI: 39
[16]
  IC50: 7.67 µg/mL
  IC80: 39.1 µg/mL
  MPI: 85
[17]
  IC50: > 50 µg/mL
  IC80: > 50 µg/mL
  MPI: 50
[18]
  IC50: 4.2 µg/mL
  IC80: 14.3 µg/mL
  MPI: 99
[25]
  IC50: 5.47 µg/mL
  IC80: 20.8 µg/mL
  MPI: 98
[30]
  IC50: 10.4 µg/mL
  IC80: 33.8 µg/mL
  MPI: 90
[31]
  IC50: > 50 µg/mL
  IC80: > 50 µg/mL
  MPI: 48
[34]
  IC50: > 50 µg/mL
  IC80: > 50 µg/mL
  MPI: 19
